Experimental data as given in paper PMC5399476.

Biological target: wild-type core streptavidin
Assay: SDS-PAGE with fluorescence scanning

stoichiometry N: 4
Substance: wild-type core streptavidin (natural protein)
